18 sequences from the DeepSol protein solubility set can be followed below.

The nature of this data set: soluble on expression in E. coli; label from the status in PepcDB or PDB records.
In the case of “MFEKVKVSTCFHVTLLKDYIVFYVSNNLNFASRWPRRRRGQRLLPTALRAMMLNPTEALLAEVSKARTSGARITVEEFIPIYKKVEAACGRSTTLKEFQTLLSHFDREGNGQIMLMELKSMLQNGGEKMTNQEARALKPATGLDTIYRNLNFNHKFTLDHSAIGFLRTNQFFDVQMIPVSRFFTVQDPSNALLSYTQKGIDFFEKLGQFSKEKAAIEEEYSTKLRSLAKKYAKKSEEDDEILKSVSYTSSFNSFLQQLDQIATRHQTSAEHIRGGVVSYVASKTCQMRSSRKNAINDLKTINDKLEDQINEMCKSGKCYLKSFKDAENSYQKFYKADKNLEISRLELEKARALANARNEACELAKQDYSALVRKTNAEQKRYHVELLPVIFARLKAVDKECIADMRQVLQKIVSFDDSLADSTEECRKIMQREVGKIDAEGDAQLVLKSVEATIEQPAPFEIEDLGDPKNCDSRTNDSADGSGGKLLKSSPSKNRIIRNFLGILKEKEADEKPEASNNDQLMYTDKSKPAHVRLSCLRSKIRDMEKQLEQAIQGREGITRLQQAYYTNPQHGNPSACTEPLISYAKKIEKLKMDIHNLKEFYAMLEMSVEEGQERSFGGRDTPDTTRSMSGSSTNQSSSKTIEDVLSGEAGNSSSADDSSKNILRQLFTTPKRLISSPKTSKSSTPTPLRRRAEISSPKILRSSFSGAIRKSLSTPDSVKVETAVTVTALFEFAKSSAETMSIEQGEILLVLEHDHGDGWTRTKKKHNEESGFVPTSYLQFPQ”, the “soluble on expression in E. coli” value was “not soluble”.

In the case of “MFELVDNIAQTAVIKVIGVGGGGGNAVNHMAKNNVEGVEFICANTDAQALKNIAARTVLQLGPGVTKGLGAGANPEVGRQAALEDRERISEVLEGADMVFITTGMGGGTGTGAAPIIAEVAKEMGILTVAVVTRPFPFEGRKRMQIADEGIRALAESVDSLITIPNEKLLTILGKDASLLAAFAKADDVLAGAVRGISDIIKRPGMINVDFADVKTVMSEMGMAMMGTGCASGPNRAREATEAAIRNPLLEDVNLQGARGILVNITAGPDLSLGEYSDVGNIIEQFASEHATVKVGTVIDADMRDELHVTVVATGLGARLEKPVKVVDNTVQGSAAQAAAPAQREQQSVNYRDLDRPTVMRNQSHGSAATAAKLNPQDDLDYLDIPAFLRRQAD”, the “soluble on expression in E. coli” value is “soluble”.

For “MFENTKKALETFRTAIECVKCKKPRGDLQYLGSSCKHAYCWECIATFQQKPSGKRSSVARHMCPSCAFPLDTSKITEAHMLKTCFDTLSELNDLLQKVGTTSLTQAEFACTQNIFNKEKTPADAVEKFLETQAHMPDEMGQLGEEDDDLMCKDENRENSNSPELDIFHDYSKEASPTRNSTKRPSTVSVHERKPKRTLTEILQRRSTAPAATGVATYAQAFGSSSNPVKAEIIEEDIFSKAIPLTKRQASMSASAKKQPKLEPEEPEEVPSTSRSRKNSIKSDKIERRSQSPMSFGEKSMSVKSEQRRSSYGTRRGEAVLVNSIRNNRIPQLRSAVEAGTCVNEKEDGKTPLYVAVENSSLEAVKILVEAGAVINASCGSTLETTLHEAVRRQNTQIVEYLLSKGASIKIRNIAGKTVEEMAKSDPKIRKIIEKFKTEQRVLQPVVAPPKSRLHFVQLIDEKMLTESEKRKLPGKINIVPADMDSPTHVVVTVDLKTRVLNINKEHIGEILKAIIKSGMIVSRDWLRACIIDPSKVDDDRSYMVQKVRWMEGEVFENTIEQWKKTITKMQPKLFAGCKFFIPKPKYNFLDRPALFEIIRSAGGQAAAREPIIDEKDPPPYHNANLKPNFVLYSLTHDIGDKFRDCTKYNLVSEQWLIEAILGCSITTPPH”, the “soluble on expression in E. coli” value was “not soluble”.

“MFEQIKNNVENAIEALKQGKPVVVLDDYDRENEGDLILPGQKATEENIAFMLEHTSGIICLAMDSKKARELNLTPMVAADQNNSTFTTPFTVTIEAKEGVTTGVSAKDRAHTIQVASKADSKAEELARPGHIFPLIANDKGVLGRNGHTEATVDLMKLSGFNSAGVLCELMNKDGTMMKAAELEAFAKKHDLPLLTIAELYQYRLATENFVTKMASSTIPFKKIGELEMSVYKDNFSGDEVVVLSKPYSGNNPLVRMHSSCITGDIFGSLRCDCQDQLHKGIEMISEEGGFFIYLDQEGRGIGLTNKLKAYNLQMNENMDTLEANLALGLPADARKYDLAIQVLKYNNVNRCRLISNNPEKLAALRNVDIETQPVYCEAFVNSHNRNYLITKKIKAKHTIKGI”: the “soluble on expression in E. coli” value was “not soluble”.

Consider “MFERFDSDRSRYASLGVVSSLPSGLIDSIWLIIDLNLKGVIPLNDLLHFDLLNNNGKVTVHFSQENSSVEMAIDLPFSYSTAYPSRIFAFDDGHRETILLPAEMLES”, for which the “soluble on expression in E. coli” value was “soluble”.

“MFGNHGQLFRLSVFRSADTAQQFLRQCYQQLQRDDAVQRSYANCYPFLYYLEHGQNFYAAAQQAPLSIKPVLLFYGMVQLLKACLLTVDPDYPESTSVLAHGVSARKRKKQGYEFLDDEVKIQKNGLFAHFSEKMFHVKQEAGEKFRMGTLLQRIGELHETFFLLSGRKKPLSLPVVHTASPPMLAIPKVILDHYHMSLSRFVQYLCEEGQGKRLSFAKEEGEFLYFHIESPLSPAGEGPFLFHLDGTLRIPVKKEKTFSLPEIHAHYLLLYNLSMISRYETEWWSELLHSYPSKAYTFILEFLSVSAEKVPLLLHEYLMRKFLG”: the “soluble on expression in E. coli” value is “not soluble”.

For the sequence “MFGRLKQKVKEKTGRAKATTLPAEVDDAMGYFKNLTPRVKDLHKSMTNLEDISKWQKKASFSGTLENYSRLGDKINVKPFMDAVDARMGAEADAVKGVLAICEKYKSFYQNEGKLHADSIANLNRTRLDMDSAADKYANNETEVNKTRLDNSTTEFEVACERMRELANGIKTIESNHSSWQDGLMKEIKVALRK”, the “soluble on expression in E. coli” value is recorded as “not soluble”.

Regarding “MFGVKDAIFKIKRSIAGTDSSDSTAYTTASESSPQLKDSHNPFRNKTTSERTIVEEGSLPPVRLNGYLPSTKNKLLTPEMCDEIRTLMPTRIQLYTEWNLLYSLEQHGSSLHSLYSNVAPDSKEFRRVGYVLVIKDRKNGIFGAYSNEAFHPNEHRQYTGNGECFLWKLDKVPDVNISEKEESEQEGKEGKEEGDKEERWRFSGYPYTGVNEFAIYCTSEFLSMGAGDGHYGLLCDDGLLHGVSNPCQTYGNEVLSKEGKKFSIVALEVWRVG”, the “soluble on expression in E. coli” value was “soluble”.

Regarding “MFGVTLWEMFSGGEEPWAGVPPYLILQRLEDRARLPRPPLCSRALYSLALRCWAPHPADRPSFSHLEGLLQEAGPSEACCVRDVTEPGALRMETGDPITVIEGSPDSTIWKGQNGRTFKVGSFPASAVTLADAGGLPATRPVHRGTPARGDQHPGSIDGDRKKANLWDAPPARGQRRNMPLERMKGISRSLESVLSLGPRPTGGGSSPPEIRQARAVPQGPPGLPPRPPLSSSSPQPSQPSRERLPWPKRKPPHNHPMGMPGARKAAALSGGLLSDPELQRKIMEVELSVHGVTHQECQTALGATGGDVVSAIRNLKVDQLFHLSSRSRADCWRILEHYQWDLSAASRYVLARP”, the “soluble on expression in E. coli” value was “soluble”.

Take “MFHAAFMEERVFSDRGSMRNACSSIEYDGCRQGQSGPLLEEKEVKRKLFGALALVAMLAAPALAEAATRGFATANVNMRSGPSTAYPAVVVIPVGAPLTVHGCLSDTPWCDVSFVNGRGWVAGRYIQTTFRQNRVYVEPRYYRDLGVPVITFEAGRYWDRYYRDRDFYRERDRWRRPPPSGGYWNAPPPSAGWDRPRPRDDWRDGRRDDGRRDEWRDPRQGGPNDGRWERRYGDWNQGDRNQDRPRRDDDRRRWEDENRDRNRDRDSNRDGNRDRPQNQYDGQRGQLEGQPRPPAPAPDAPLQGCIIGSPGCAQRLEHHHHHH”: the “soluble on expression in E. coli” value is listed as “soluble”.

“MFHCKGLYMSDQNDKLKNLKTSSMDRRLSIAKASLLAGTRWATASATSMFSSEAEKEKKRKKAMTEQANYLVSEIGKLKGSIVKIGQMMALYGEHFLPEEITQALNTLNNQTVALAWPAIKAHLQEQLGSKLDDLIIDHEPIGTASLAQVHRATRKSDGLELVLKIQYPGVAEAIDSDMSLFKNMLKLTRMVPQTREFDQWFDEVREMMHREVSYDIEAATTRRFAERLKTDPRYAVPQIIDAYCTTKILCMTFERGVPINSPVMLSLPQERRNKLGEASLEIAVREIFEWGEMQTDPNFGNYLVRLGNGTDIQDKIVLLDFGAIRQFDEHLLSVARNLIRAGYNHSNEEMVRAMTGYSFFDSIPESIKPDMAKVFLLATEAFSCPENNPDMPTGLMDEDNRYDWKKSQLHSRVMQQASKSMASRYFSVPPKEFMFISRKFIGAYTFMTVIEAKTNVRRMISHFVK”: the “soluble on expression in E. coli” value is listed as “soluble”.

Consider “MFIGYKSSKSKKILIMNSKGGAGKSSLTMAMARLFSSKNIKTELIDLDPQNTSYFWGGNNKEIRTQTFLTSSRVPFSLALKLELDTELTIIDTPSNFNKFELDKYLSLADKIILPLQASPIDLHSILGFIKNLIASPVYKKRNIPVCFVITRYKGRVGDLELMHRVLNKLKYPIIGVMSESDAYQSLFIDEDVKVFQYLDKNLWVEIERWINI”, for which the “soluble on expression in E. coli” value is reported as “not soluble”.

Consider “MFILSAQRLSGTQVFRRLAEGCTGYSVSSGCRQRRRCCPGAPQRPRRVRVNALQLQSGLADPLDPKSEAEVREHLRSNSPAERALGINYARYLDESTRYDILLEMMEDTDPQVRYAAVTQLATVGSHDRQRTLKAVRKILWNTEEDASVRAGAADVLGGLRFHEAFPDLEKLFHESKDWVVRFSIIAALGEMGVREAFPILVEALHANKEPLVQLAAIGALGELGDERARVYLEPLVNSSDASIVERARFALDALDARGSERT”, for which the “soluble on expression in E. coli” value is given as “not soluble”.

For the sequence “MFKGDMNKKRAKALQKVKEAITLHGGQTILSTGITGDDARLAKAVCEAGVKLLEPNHPALALARGHKGVSNMHAAEQIRHEITNSQMAEAVHGVRNVVPDDIFITVGIAGGFTETLPVPLSEKEILEIARAGADGLHTHKSDWDDLQDIVNLAHQYGLTVDAYIGHPDDLHTFGIPARTPEEVASVAKRMQDIGVDMIGLMTGMSYEGVAAGDIPQMIKDRLRALVGAVDVPTLAEGGINLANAKAFKDTGVNILVVGTAIDNMVCNAAKEAVTPFIVH”, the “soluble on expression in E. coli” value is on record as “soluble”.

As to “MFKRLMMVALLVIAPLSAATAADQSNPYKLMNEAAQKTFDRLKNEQPKIRANPDYLRDVVDQELLPYVQVKYAGALVLGRYYKEATPAQREAYFAAFREYLKQAYGQALAMYHGQTYQIAPEQPLGDATIVPIRVTIIDPNGRPPVRLDFQWRKNTQTGNWQAYDMIAEGVSMITTKQNEWSDLLRTKGIDGLTAQLKSISQQKITLDEKQLEHHHHHH”, the “soluble on expression in E. coli” value was “soluble”.

In the case of “MFLKAGESKTVTIDLDERAFAYWSEKYNDWHVEAGEYAIEVGVSSRDIADTVAVALDGDGKTQPLTEWSTYGEWEADPFGAKIVAAVAAAGEAGELTKLPDNAMMRMFLNPMPINSLPTLLGEGGKKIAQFMVDEYAKLAK”, the “soluble on expression in E. coli” value was “not soluble”.

Turning to “MFLKRIELQREKVLSFQEYPFSIPAIKHFQRLELKSRVTFFVGENGSGKSTLLEAIADKCEFNTAGGGRNNYYEVDASESALGDYIRLSWLPKVSNGFFLRAESFYHFASHVDEVDARHAYGGRSLHHQSHGEAFLSLFANRFNRKGIYLLDEPEAALSPRRQLSFLAILHDLVSSGDSQFIIATHSPILLGYPHATILSFDHGTIEETTYEQTEHYQLTRYFLENRERMLRELLGELEHHHHHH”, the “soluble on expression in E. coli” value is given as “not soluble”.

With “MFLSTKFLPMSDTVIRIENLSKKYIIAHQQQERYTVLRDVIANQIKSLGSLINPKAKTENPNCEEFWALKDVSFEIKQGDRVGIIGRNGAGKSTLLKILSRITEPTHGCINIKGRIASLLEVGTGFHPELTGRENIYLNGAILGMSKAEIKRKFDEIVAFSEVEKFLDTPVKRYSSGMYVRLAFAVAAHLEPEILIVDEVLAVGDAAFQQKCLGKMEDVGKEGRTVLFVSHNMATVKQLCNCAFLLYQGNLIFQGNPHEAISQYMQKSTQGKHFHQANIYHHIKGDFRAEIEKITINNLDNSEIALSIFEKVKISIKYKINKPIDELDFFVLIYNLEDGEVQTSLFQRDSLSNIQPLSNYGTISVEFTNPLMPGKYTISAGIFDKNKRFVDWVELAESFYVESAFINGNKYDQRLGKISIQGTWYAE”, the “soluble on expression in E. coli” value was “not soluble”.
